Measurements published in article PMC3688583, “Eubacterial SpoVG Homologs Constitute a New Family of Site-Specific DNA-Binding Proteins”.

What was measured:
[1] = molecular target: T1, SpoVGSa (Staphylococcus aureus) (UniProt Q7A7B5); assay: competition; details: 50 mM Tris-HCl pH 7.5, 1 mM DTT, 150 nM EDTA, 50 ng/ml poly dI-dC, phosphatase and protease inhibitors; about 20 C; protein stocks in 50 mM Tris-HCl, 25 mM …
T1 sequence: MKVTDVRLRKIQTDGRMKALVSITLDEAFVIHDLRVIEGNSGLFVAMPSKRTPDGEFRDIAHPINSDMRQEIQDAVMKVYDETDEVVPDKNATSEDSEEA

[2] = molecular target: T1, SpoVGSa (Staphylococcus aureus); assay: EMSA; details: 50 mM Tris-HCl pH 7.5, 1 mM DTT, 150 nM EDTA, 50 ng/ml poly dI-dC, phosphatase and protease inhibitors; about 20 C; protein stocks in 50 mM Tris-HCl, 25 mM …
[3] = molecular target: T2, SpoVGBb (Borrelia burgdorferi B31) (UniProt O51726); assay: EMSA; details: 50 mM Tris-HCl pH 7.5, 1 mM DTT, 150 nM EDTA, 50 ng/ml poly dI-dC, phosphatase and protease inhibitors; about 20 C; protein stocks in 50 mM Tris-HCl, 25 mM …
T2 sequence: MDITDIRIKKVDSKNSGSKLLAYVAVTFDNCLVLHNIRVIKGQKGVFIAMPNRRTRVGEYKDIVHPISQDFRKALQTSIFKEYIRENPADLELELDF

SpoVGSa [4] = molecular target: T3, SpoVGSa (Staphylococcus aureus, UniProt Q7A7B5 1-100); assay: EMSA; 50 mM Tris-HCl pH 7.5, 1 mM DTT, 150 nM EDTA, 50 ng/ml poly dI-dC, phosphatase and protease inhibitors; about 20 C; protein stocks in 50 mM Tris-HCl, 25 mM KCl, 10% glycerol, 0.01% Tween-20; details: protein: recombinant; tags: 6xHis (pET101); label: 5' biotin (strand 1); strands not exact complements (S12 has 3 extra nt)
T3 sequence: T1 sequence

SpoVGSa K50A = SpoVGSa K50A (Staphylococcus aureus, UniProt Q7A7B5 1-100, K50A); assay: EMSA; 1.5 uM protein; 50 mM Tris-HCl pH 7.5, 1 mM DTT, 150 nM EDTA, 50 ng/ml poly dI-dC, phosphatase and protease inhibitors; about 20 C; protein stocks in 50 mM Tris-HCl, 25 mM KCl, 10% glycerol, 0.01% Tween-20; details: protein: recombinant; tags: 6xHis (pET101); label: 5' biotin (strand 1); strands not exact complements (S12 has 3 extra nt)
SpoVGSa K50A-R51A = SpoVGSa K50A-R51A (Staphylococcus aureus, UniProt Q7A7B5 1-100, K50A;R51A); assay: as above; details: protein: recombinant; tags: 6xHis (pET101); label: 5' biotin (strand 1); strands not exact complements (S12 has 3 extra nt)
SpoVGSa R51A = SpoVGSa R51A (Staphylococcus aureus, UniProt Q7A7B5 1-100, R51A); assay: as above; details: protein: recombinant; tags: 6xHis (pET101); label: 5' biotin (strand 1); strands not exact complements (S12 has 3 extra nt)
SpoVGBb-Sa = SpoVGBb-Sa (Borrelia burgdorferi B31, UniProt O51726 1-97, Q69S;F71M;K73Q;A74E); assay: EMSA; 200 nM protein; 50 mM Tris-HCl pH 7.5, 1 mM DTT, 150 nM EDTA, 50 ng/ml poly dI-dC, phosphatase and protease inhibitors; about 20 C; protein stocks in 50 mM Tris-HCl, 25 mM KCl, 10% glycerol, 0.01% Tween-20; details: protein: recombinant; tags: 6xHis (pET101); label: 5' biotin (strand 1); strands not exact complements (S12 has 3 extra nt)
SpoVGBb = molecular target: T4, SpoVGBb (Borrelia burgdorferi B31, UniProt O51726 1-97); assay: as above; details: protein: recombinant; tags: 6xHis (pET101); label: 5' biotin (strand 1); strands not exact complements (S12 has 3 extra nt)
T4 sequence: T2 sequence

SpoVGSa [5] = molecular target: T3, SpoVGSa; assay: competition; 10- to 50-fold excess vs cap41; 50 mM Tris-HCl pH 7.5, 1 mM DTT, 150 nM EDTA, 50 ng/ml poly dI-dC, phosphatase and protease inhibitors; about 20 C; protein stocks in 50 mM Tris-HCl, 25 mM KCl, 10% glycerol, 0.01% Tween-20; details: protein: recombinant; tags: 6xHis (pET101); blunt
SpoVGSa [6] = molecular target: T3, SpoVGSa; assay: competition; 25- and 50-fold excess vs cap41; 50 mM Tris-HCl pH 7.5, 1 mM DTT, 150 nM EDTA, 50 ng/ml poly dI-dC, phosphatase and protease inhibitors; about 20 C; protein stocks in 50 mM Tris-HCl, 25 mM KCl, 10% glycerol, 0.01% Tween-20; details: protein: recombinant; tags: 6xHis (pET101); blunt
SpoVGSa [7] = molecular target: T3, SpoVGSa; assay: competition; 50-fold excess vs cap41; 50 mM Tris-HCl pH 7.5, 1 mM DTT, 150 nM EDTA, 50 ng/ml poly dI-dC, phosphatase and protease inhibitors; about 20 C; protein stocks in 50 mM Tris-HCl, 25 mM KCl, 10% glycerol, 0.01% Tween-20; details: protein: recombinant; tags: 6xHis (pET101)

With “CCTCCTGAATATTTTAAGTTTATCAAAACTTTTTAGGGACACTATTTTTTGAAAAAGTGCTCCTTACTCAAATAATATATAAATTATTAGTATATGTATATAGTTTTTTAAGTATTTTTAGTTTTTTTTAAATAAATATATTGAATATACCCATATATTTTTAATTAACCATTCATTTTTGTAATATAAATGTGTATACTAAAATTAAATTAAATACATAAAGG (double strand) [esxA 5' non-coding DNA]” the binding [1] was “binds”.

For cap5 5' non-coding DNA, the Kd [2] was 316 nM.

For “GTTAATAGTTTGCCTAAGGAAAAAAGCGATATAAGTAGTACGACGGGGAAACCAGATAGTACAGGTTCTGTTGGT (double strand) [vlsE F27B-R10]”, the binding [3] was “binds”.

In the case of “GGTGAATACTTATCATTTAAGTCCTTTGACACCTCATCTAAAATTCTAGGACTTTTAACAATTTCTTTATACGTATTTACAAGTTGAATATTACTTTGAACCTCTTGCGCCATAAACTGAGGATTGTCACCCTTAGTTTGATTCACTAAAATTTGAGTATTAGCTTGATATTTAGGTGATAAGACGAAAAATGTAACAATAGCGC (double strand) [cap5A ORF DNA]”, the binding [1] is reported as “binds more weakly”.

B1: cap41 (dsDNA)
DNA 1: GAGTATAATTATTTTTAATTTACATATAAATAAAAAGGCGAAAATAATGCGGTTTAAAAGTAATTAAT
DNA 2: ATTAATTACTTTTAAACCGCATTATTTTCGCCTTTTTATTTATATGTAAATTAAAAATAATTAATATACTC
B1: binds (SpoVGSa [4]); no binding (SpoVGSa K50A); no binding (SpoVGSa K50A-R51A). B1: no binding (SpoVGSa R51A); binds (SpoVGBb-Sa); no binding (SpoVGBb).

B2: competitor A (dsDNA)
DNA 1: GAGTATAATTATTTTTAATTTACATATA
DNA 2: TATATGTAAATTAAAAATAATTATACTC
B2: binds (SpoVGSa [5]).

B3: mutant competitor A (dsDNA)
DNA 1: GAGTAGCCGCCTTTTCGCCGGACATATA
DNA 2: TATATGTCCGGCGAAAAGGCGGCTACTC
B3 was tested, and the binding signal (SpoVGSa [6]) was > 5 fold lower affinity than competitor A.

B4: competitor B (dsDNA)
DNA 1: TACATATAAATAAAAAGGCGAAAATAAT
DNA 2: ATTATTTTCGCCTTTTTATTTATATGTA
B4: no binding (SpoVGSa [7]).

B5: competitor C (dsDNA)
DNA 1: AAAATAATGCGGTTTAAAAGTAATTAAT
DNA 2: ATTAATTACTTTTAAACCGCATTATTTT
B5: no binding (SpoVGSa [7]).
